Reference: patent publication US8709811B2, “Materials and methods for synthesis of a flavor and aroma volatile in plants” (University of Florida Research Foundation, Inc., priority 2003, dated 2014)

Key:
Assay in all cases: Alcohol dehydrogenase activity of E. coli expressed His-tagged LePEDH on phenylacetaldehyde and related substrates (Km)
Type in all cases: biochemical, tomato
Settings in all cases: other: substrate specificity of LePEDH, His tag, E. coli BL21-AI
O=Cc1ccccc1 = test system: O=Cc1ccccc1
Method: (§1) The 2-phenylethanol dehydrogenase coding region of the full-length cLET2M9 was cloned in vector pDEST17 with a His tag and transformed into E. coli BL21-AI cells for inducible expression. Alcohol dehydrogenase activities on phenylacetaldehyde and several related substrates were determined.
O=CCc1ccccc1 = test system: O=CCc1ccccc1
Method: as §1
O=C/C=C/c1ccccc1 = test system: O=C/C=C/c1ccccc1
Method: as §1

Sequence of LePEDH (tomato 2-phenylethanol dehydrogenase, full-length cLET2M9) (Solanum lycopersicum) (chain, as listed by the source): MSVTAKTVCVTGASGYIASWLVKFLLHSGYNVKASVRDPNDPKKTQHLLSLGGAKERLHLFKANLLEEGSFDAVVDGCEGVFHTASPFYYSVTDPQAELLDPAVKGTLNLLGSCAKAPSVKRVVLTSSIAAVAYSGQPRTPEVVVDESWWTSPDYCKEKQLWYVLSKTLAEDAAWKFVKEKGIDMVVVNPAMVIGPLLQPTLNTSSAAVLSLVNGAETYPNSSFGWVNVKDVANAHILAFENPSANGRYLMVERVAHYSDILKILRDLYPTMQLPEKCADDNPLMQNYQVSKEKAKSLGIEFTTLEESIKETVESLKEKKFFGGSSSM

Q: With “LePEDH (tomato 2-phenylethanol dehydrogenase, full-length cLET2M9) (Solanum lycopersicum)” as the substance, how does the Km (O=Cc1ccccc1) read?
A: 240.1 µM

Q: And the Km (O=CCc1ccccc1)?
A: 42.3 µM

Q: What about the Km (O=C/C=C/c1ccccc1) of the same substance?
A: 428.9 µM
